Assay results published in patent US20020111306A1.
Where “and” joins values, the source holds several entries; their conditions need not be identical. Identical values can stand only once.

Columns and labels:
[1] = molecular target: human MCH1 receptor (MCH1) encoded by plasmid TL231 (pEXJ.HR-TL231) (human); assay: cell-based or functional assay
[2] = molecular target: human MCH1 receptor (MCH1) encoded by plasmid TL231 (pEXJ.HR-TL231) (human); assay: radioligand binding, membranes of Cos-7 cells transfected with MCH1, 0.1 nM radioligand, filtration
[3] = molecular target: human MCH1 receptor (MCH1) encoded by plasmid TL231 (pEXJ.HR-TL231) (human); assay: radioligand binding, membranes of Cos-7 cells transfected with MCH1, 0.1 nM radioligand, filtration; nonspecific binding defined with 10 µM unlabeled MCH
[4] = molecular target: human MCH1 receptor (MCH1) encoded by plasmid TL231 (pEXJ.HR-TL231) (human); assay: cell-based or functional assay; remark: listed apart in the source
[5] = molecular target: mutant (short form) human MCH1 receptor encoded by plasmid BO120 (human); assay: cell-based or functional assay
[6] = molecular target: mutant human MCH1 receptor encoded by plasmid R114 (M6A, M70A) (human) (UniProt Q99705); assay: cell-based or functional assay
Sequence of UniProt Q99705 (Q99705 whole entry, stated change not applied): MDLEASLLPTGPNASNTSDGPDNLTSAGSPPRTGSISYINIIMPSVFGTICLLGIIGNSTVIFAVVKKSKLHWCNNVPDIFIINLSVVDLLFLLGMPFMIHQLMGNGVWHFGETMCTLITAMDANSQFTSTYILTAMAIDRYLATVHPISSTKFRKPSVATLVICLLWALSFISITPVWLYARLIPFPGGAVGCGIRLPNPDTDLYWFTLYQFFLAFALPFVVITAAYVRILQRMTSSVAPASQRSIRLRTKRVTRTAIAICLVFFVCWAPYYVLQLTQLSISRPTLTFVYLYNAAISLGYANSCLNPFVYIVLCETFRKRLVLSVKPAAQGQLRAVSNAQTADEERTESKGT

Sequence of human MCH1 receptor (MCH1) encoded by plasmid TL231 (pEXJ.HR-TL231) (human) (chain, as listed by the source limits assumed): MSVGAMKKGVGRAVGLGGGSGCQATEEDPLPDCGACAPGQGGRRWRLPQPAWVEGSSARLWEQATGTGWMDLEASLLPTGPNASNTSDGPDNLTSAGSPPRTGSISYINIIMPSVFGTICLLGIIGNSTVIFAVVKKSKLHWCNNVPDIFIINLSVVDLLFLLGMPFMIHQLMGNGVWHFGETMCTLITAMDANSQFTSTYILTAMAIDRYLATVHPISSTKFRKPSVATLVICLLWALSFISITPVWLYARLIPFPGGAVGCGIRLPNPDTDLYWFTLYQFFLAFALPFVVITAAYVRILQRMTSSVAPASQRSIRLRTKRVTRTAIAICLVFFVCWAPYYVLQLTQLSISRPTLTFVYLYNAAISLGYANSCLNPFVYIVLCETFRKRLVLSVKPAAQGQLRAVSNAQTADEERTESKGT

With “Phe^13,Tyr^19-MCH (from UniProt P20382 147-165) (peptide)” the EC50 of extracellular acidification rate (microphysiometer), CHO cells transiently transfected with MCH1 [1] was 51.8 nM.

With “[^125I]Phe^13,Tyr^19-MCH (from UniProt P20382 147-165) (peptide)” the specific binding as percent of total binding (% of total binding) [2] was 70 and the specific binding (fmol/mg membrane protein) [3] was 80.

B1: melanin concentrating hormone (MCH) (peptide, UniProt P20382 147-165, looked up)
peptide: DFDMLRCMLGRVYRPCWQV
B1 showed an EC50 (nM), mobilization of intracellular calcium (FLIPR, fluo-3), COS-7 cells [4] of 60 nM, an inositol phosphate (IP) production, Cos-7 cells co-transfected with MCH1 and a G alpha subunit, 10 µM MCH [4] of 1.4 fold and an EC50 (nM), mobilization of intracellular calcium (FLIPR, fluo-3), COS-7 cells [5] of 3.5 nM. For the same molecule, the Max. Response (RFU), mobilization of intracellular calcium (FLIPR, fluo-3), COS-7 cells [5] was 30000 RFU and 25000 RFU and the Max. Response (RFU), mobilization of intracellular calcium (FLIPR, fluo-3), COS-7 cells [6] was 2270 RFU and 1550 RFU.
